T1: IL-4Rα (CD124) (UniProt P24394 26-232)
T1 construct: interleukin-4 receptor alpha chain (CD124), recombinant protein bought from Sino Biological; No catalogue number is printed; also called IL-4 receptor; source: bought: Sino Biological
T1 sequence (looked up): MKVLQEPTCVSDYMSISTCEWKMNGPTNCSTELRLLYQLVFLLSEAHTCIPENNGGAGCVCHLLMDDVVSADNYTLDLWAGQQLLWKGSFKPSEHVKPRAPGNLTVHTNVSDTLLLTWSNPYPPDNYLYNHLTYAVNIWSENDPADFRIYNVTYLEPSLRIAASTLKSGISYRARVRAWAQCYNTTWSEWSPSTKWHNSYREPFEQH

T2: IL-4 receptor on H226 and MDA-MB-231 cancer cells (human (endogenous in H226 and …, UniProt P24394 26-825))
T2 construct: interleukin-4 receptor as expressed on the surface of human cancer cell lines; On cells the alpha chain may stand with other receptor chains; source: endogenous, on H226 and MDA-MB-231 cells
T2 sequence (looked up): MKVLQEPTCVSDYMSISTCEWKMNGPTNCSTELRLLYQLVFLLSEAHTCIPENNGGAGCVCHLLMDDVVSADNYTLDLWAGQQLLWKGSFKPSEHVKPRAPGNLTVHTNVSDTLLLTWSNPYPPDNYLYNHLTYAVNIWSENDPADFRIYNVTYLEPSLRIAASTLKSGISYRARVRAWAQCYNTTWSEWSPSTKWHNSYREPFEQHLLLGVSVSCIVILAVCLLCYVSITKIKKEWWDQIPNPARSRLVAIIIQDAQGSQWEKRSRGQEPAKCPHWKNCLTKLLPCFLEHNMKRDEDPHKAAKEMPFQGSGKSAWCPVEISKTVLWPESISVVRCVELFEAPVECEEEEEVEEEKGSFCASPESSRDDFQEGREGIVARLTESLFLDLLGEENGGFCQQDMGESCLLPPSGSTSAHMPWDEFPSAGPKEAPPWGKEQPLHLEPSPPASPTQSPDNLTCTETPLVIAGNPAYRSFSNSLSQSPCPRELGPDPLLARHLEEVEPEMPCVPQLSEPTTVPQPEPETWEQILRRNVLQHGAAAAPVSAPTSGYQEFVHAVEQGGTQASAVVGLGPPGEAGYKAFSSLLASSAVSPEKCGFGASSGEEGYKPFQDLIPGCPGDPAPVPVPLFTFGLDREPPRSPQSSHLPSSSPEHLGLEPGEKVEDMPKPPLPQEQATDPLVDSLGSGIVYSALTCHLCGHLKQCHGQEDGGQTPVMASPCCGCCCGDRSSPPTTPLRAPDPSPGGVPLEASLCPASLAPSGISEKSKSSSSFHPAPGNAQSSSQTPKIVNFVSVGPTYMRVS

B1: AP1 peptide (peptide)
peptide: CRKRLDRN
notes: peptide found earlier by phage display screening, termed AP1; also called free AP1 peptide
B2: [AP1-V12]6 polymer, SGPG[VGRKRLDRNG(VGVPG)12]6WPC (designed binder)
chain: SGPGVGRKRLDRNGVGVPGVGVPGVGVPGVGVPGVGVPGVGVPGVGVPGVGVPGVGVPGVGVPGVGVPGVGVPGVGRKRLDRNGVGVPGVGVPGVGVPGVGVPGVGVPGVGVPGVGVPGVGVPGVGVPGVGVPGVGVPGVGVPGVGRKRLDRNGVGVPGVGVPGVGVPGVGVPGVGVPGVGVPGVGVPGVGVPGVGVPGVGVPGVGVPGVGVPGVGRKRLDRNGVGVPGVGVPGVGVPGVGVPGVGVPGVGVPGVGVPGVGVPGVGVPGVGVPGVGVPGVGVPGVGRKRLDRNGVGVPGVGVPGVGVPGVGVPGVGVPGVGVPGVGVPGVGVPGVGVPGVGVPGVGVPGVGVPGVGRKRLDRNGVGVPGVGVPGVGVPGVGVPGVGVPGVGVPGVGVPGVGVPGVGVPGVGVPGVGVPGVGVPGWPC
notes: The vector's insert begins with an ATG; also called [AP1-V12]6 protein; targeted [AP1-V12]6 polymer; source: E. coli BL21 (DE3), purified (four rounds of inverse transition cycling)
B3: Alexa 488-labeled [AP1-V12]6 (designed binder)
chain: B2 chain
modifications: Alexa Fluor 488-C5 maleimide on the C-terminal Cys residue
notes: as m1; The labelled form of m1, used on cells (flow cytometry, confocal microscopy); also called Alexa-labeled [AP1-V12]6; targeted [AP1-V12]6 polymer; source: E. coli BL21 (DE3), purified (four rounds of inverse transition cycling), then labelled

Tests used:
IL-4Rα (CD124) = target: T1, IL-4Rα (CD124); assay: SPR; IL-4Rα immobilised by amine coupling on a carboxymethyl dextran chip (2000±400 RU); AP1 peptide 3.125 to 50 µM, [AP1-V12]6 125 nM to 1 µM, [V14]6 1 µM flowed for 3 min at 25 µL/min; 25°C; kinetic fits with Scrubber 2; conditions: both partners purified
[1] = target: T2, IL-4 receptor on H226 and MDA-MB-231 …; assay: flow cytometry on cells; 10 µM Alexa 488-labelled polymer or peptide, 1 h at 4°C, on H226 and MDA-MB-231 cells (IL-4R highly expressed) after blocking with 2% BSA; H460 cells as IL-4R negative control; conditions: one partner purified

Row | Binder | koff (IL-4Rα (CD124)) | kon (IL-4Rα (CD124)) | fold cell attachment, H226 cells over H460 cells [1] | fold cell attachment, MDA-MB-231 cells over H460 cells [1]
1 | B1 | 0.17 s⁻¹ | 35 M⁻¹ s⁻¹ | – | –
2 | B2 | 0.00125 s⁻¹ | 5810 M⁻¹ s⁻¹ | – | –
3 | B3 | – | – | 5.9 ± 1.6 fold | 5.6 ± 1.3 fold

— paper PMC3858272, “Construction and Application of Elastin Like Polypeptide Containing IL-4 Receptor Targeting Peptide” (PLoS ONE, 2013)
